This is an account of results in patent US20230398229A1, “ANTIBODY DRUG […] AGONISTS, COMBINATIONS AND METHODS OF USE” (Mersana Therapeutics, Inc., priority 2022, published 2023).

One test deals with HER2 (Homo sapiens, UniProt P04626). Put plainly: Inhibition of HER2 functional activity in vitro.
A further test deals with rat HER2 (Rattus norvegicus, UniProt P06494). Put plainly: Binding of antibody to rat HER2.
Chain of rat HER2 (P06494 23-1257): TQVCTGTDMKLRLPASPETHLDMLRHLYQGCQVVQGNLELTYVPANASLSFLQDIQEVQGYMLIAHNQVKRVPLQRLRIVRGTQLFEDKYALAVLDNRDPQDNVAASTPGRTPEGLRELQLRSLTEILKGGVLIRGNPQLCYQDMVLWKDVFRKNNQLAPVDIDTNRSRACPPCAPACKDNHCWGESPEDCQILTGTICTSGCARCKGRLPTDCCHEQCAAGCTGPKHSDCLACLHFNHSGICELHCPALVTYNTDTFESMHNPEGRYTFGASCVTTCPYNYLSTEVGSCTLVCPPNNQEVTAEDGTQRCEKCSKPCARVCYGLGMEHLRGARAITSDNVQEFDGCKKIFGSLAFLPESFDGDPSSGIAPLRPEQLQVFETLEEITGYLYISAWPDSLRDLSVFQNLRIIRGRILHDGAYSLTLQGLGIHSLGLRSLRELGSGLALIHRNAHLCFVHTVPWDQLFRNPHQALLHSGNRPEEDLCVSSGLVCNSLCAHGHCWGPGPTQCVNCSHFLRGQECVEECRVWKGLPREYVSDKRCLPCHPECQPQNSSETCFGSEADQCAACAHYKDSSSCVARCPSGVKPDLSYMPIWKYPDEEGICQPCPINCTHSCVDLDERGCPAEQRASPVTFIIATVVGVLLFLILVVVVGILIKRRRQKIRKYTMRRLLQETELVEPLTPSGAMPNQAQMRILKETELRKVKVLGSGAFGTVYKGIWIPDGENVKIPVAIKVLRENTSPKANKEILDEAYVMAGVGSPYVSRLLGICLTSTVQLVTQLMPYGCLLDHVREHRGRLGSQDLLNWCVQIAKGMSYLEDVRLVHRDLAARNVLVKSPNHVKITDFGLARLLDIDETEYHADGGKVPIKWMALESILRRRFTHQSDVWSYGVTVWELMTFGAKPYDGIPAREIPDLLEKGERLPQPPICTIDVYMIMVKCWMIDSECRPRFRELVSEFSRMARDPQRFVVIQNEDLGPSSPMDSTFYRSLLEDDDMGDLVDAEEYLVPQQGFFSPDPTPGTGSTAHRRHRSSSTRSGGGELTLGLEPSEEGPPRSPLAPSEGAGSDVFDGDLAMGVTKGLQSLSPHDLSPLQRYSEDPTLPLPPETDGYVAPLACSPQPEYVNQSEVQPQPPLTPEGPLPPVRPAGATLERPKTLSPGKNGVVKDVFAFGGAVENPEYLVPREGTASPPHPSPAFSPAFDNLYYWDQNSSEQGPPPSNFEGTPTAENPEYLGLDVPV

For the substance “XMT-1519: anti-Her2 antibody disclosed in U.S. Pat. No. 9,555,112 and 9,738,720”, in the test with HER2, the “Functional activity of HER2” value is “inhibit the functional activity of HER2”. Also, in the test with rat HER2, the “Binding to rat HER2” value is recorded as “does not bind”.
